Three molecules from article PMC6208734, “Epitope determines efficacy of therapeutic anti-Tau antibodies in a functional assay with human Alzheimer Tau” (Acta Neuropathologica, 2018) can be followed below.

To fix the notation:
B1: antibody B (antibody, V domains shown)
VH: EVKVEESGGGLVQPGGSMKLSCVVSGFTFSNYWVNWVRQSPEKGLEWVAQIRLKSDNYATHYEESVKGRFTISRDDSKSSVYLQMNNLRAEDSGIYYCTNWEDYWGQGTTLTVSS
VL: DIVLTQSPASLAVSLGQRATISCRASQSVSTSRYSYIHWYQQKPGQPPKLLIKYASNLESGVPARFSGSGSGTDFTLNIHPLEEEDAATYYCHHSWEIPLTFGAGTKLELK
notes: heavy chain V-region; mouse gamma-1 IgG heavy chain constant region (from the expression vector); light chain V-region; mouse kappa light chain constant region (from the expression vector); source: CHOSXE cell line, electroporated, purified (Protein A, gel filtration); copies: 2 + 2
B2: antibody A (antibody, V domains shown)
VH: EVHLVESGGALVKPGGSLKLSCAASGFSFSKYGMSWVRQTPDKRLEWVATISSSGSRTYYPDSVKGQFTISRDNAKNTLYLQMSSLKSEDTAMYYCSISWDGAMDYWGQGTSVTVSS
VL: DVLMTQTPLSLPVSLGDQASISCKSSQSIVHSNGNTYLEWYLQKPGQSPKLLVYKVSNRFSGVPDRFSGSGSGTDFTLKISRVEAEDLGTYYCFQGSLVPWAFGGGTKLEIK
notes: as for B1
B3: antibody F (antibody, V domains shown)
VH: EVQLVQSGAEVKKPGESLKISCKGSGYTFSNYWIEWVRQMPGKGLEWMGEILPGSDSIKYEKNFKGQVTISADKSISTAYLQWSSLKASDTAMYYCARRGNYVDDWGQGTLVTVSS
VL: EIVLTQSPGTLSLSPGERATLSCRSSQSLVHSNQNTYLHWYQQKPGQAPRLLIYKVDNRFSGIPDRFSGSGSGTDFTLTISRLEPEDFAVYYCSQSTLVPLTFGGGTKVEIK
notes: as for B1

What is called Kd is the free concentration of one partner at which half of the binding sites on the other are occupied at equilibrium, for simple one-to-one binding. By koff is commonly meant the rate constant with which the complex falls apart. Usually kon stands for the rate constant with which the complex forms.

The target of this test is T1, monomeric recombinant Tau (2N4R) (Homo sapiens (Human)., UniProt P10636-8).
T1 construct: Tau (microtubule-associated protein Tau), isoform 2N4R, 441 amino acids; gene synthesized by DNA2.0; also called Tau monomer; monomeric Tau; source: Expi293 expression system, purified from culture medium (Ni Sepharose Excel, TEV cleavage, second Ni Sepharose Excel); not shown: 10His-TEV, N-terminal, cleaved
T1 sequence (P10636 other isoform, or with tags, fused parts or gaps): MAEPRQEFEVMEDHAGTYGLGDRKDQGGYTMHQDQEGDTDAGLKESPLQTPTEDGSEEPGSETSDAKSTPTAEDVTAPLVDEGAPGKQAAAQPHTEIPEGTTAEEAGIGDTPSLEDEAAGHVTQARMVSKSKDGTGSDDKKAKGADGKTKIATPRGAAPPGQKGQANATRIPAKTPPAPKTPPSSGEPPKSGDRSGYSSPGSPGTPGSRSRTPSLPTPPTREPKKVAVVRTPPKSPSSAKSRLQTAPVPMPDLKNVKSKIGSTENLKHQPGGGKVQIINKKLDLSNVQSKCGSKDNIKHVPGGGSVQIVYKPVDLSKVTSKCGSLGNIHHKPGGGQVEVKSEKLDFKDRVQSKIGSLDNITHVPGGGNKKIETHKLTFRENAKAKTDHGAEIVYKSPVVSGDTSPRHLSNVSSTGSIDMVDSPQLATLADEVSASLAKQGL
The test can be described thus: SPR; monomeric recombinant Tau and full-length IgG; BIAcore T200, 25 °C; extrinsic affinity; who was immobilised is not told for the monomer. The settings on record: both partners purified. A general note: Surface plasmon resonance follows binding to a sensor surface in real time, without labels.
Regarding B1, the Kd came out at 20.7 nM, the koff came out at 0.000953 s⁻¹ and the kon amounted to 50000 M⁻¹ s⁻¹.

Consider B2, for which the Kd came to 0.16 nM, the koff was found to be 5.2e-05 s⁻¹ and the association rate constant (kon) is 360000 M⁻¹ s⁻¹.

On to B3, for which the Kd worked out at 117 nM, the off-rate (koff) came to 0.0205 s⁻¹ and the kon came out at 180000 M⁻¹ s⁻¹.
